Data: patent publication US7135170B2 (ZymoGenetics, Inc., priority 2002, dated 2006)

B1: Zcyto24: previous designation for mouse IL-28A (SEQ ID NO: 8); mouse IL-28 (zcyto24) in b234 (protein, listed as Mus musculus)
chain: MKPETAGGHMLLLLLPLLLAAVLTRTQADPVPRATRLPVEAKDCHIAQFKSLSPKELQAFKKAKDAIEKRLLEKDLRCSSHLFPRAWDLKQLQVQERPKALQAEVALTLKVWENMTDSALATILGQPLHTLSHIHSQLQTCTQLQATAEPRSPSRRLSRWLHRLQEAQSKETPGCLEASVTSNLFRLLTRDLKCVANGDQCV
B2: IL-28A: human IL-28A polypeptide, previous designation zcyto20 (SEQ ID NOS: 2, 18, 36) (protein, listed as Homo sapiens)
chain: MKLDMTGDCTPVLVLMAAVLTVTGAVPVARLHGALPDARGCHIAQFKSLSPQELQAFKRAKDALEESLLLKDCRCHSRLFPRTWDLRQLQVRERPMALEAELALTLKVLEATADTDPALVDVLDQPLHTLHHILSQFRACIQPQPTAGPRTRGRLHHWLYRLQEAPKKESPGCLEASVTFNLFRLLTRDLNCVASGDLCV
modifications: SIGNAL (1)...(25)
B3: IL-29: human IL-29 polypeptide, previous designation zcyto21 (SEQ ID NOS: 4, 20, 38) (protein, listed as Homo sapiens)
chain: MAAAWTVVLVTLVLGLAVAGPVPTSKPTTTGKGCHIGRFKSLSPQELASFKKARDALEESLKLKNWSCSSPVFPGNWDLRLLQVRERPVALEAELALTLKVLEAAAGPALEDVLDQPLHTLHHILSQLQACIQPQPTAGPRPRGRLHHWLHRLQEAPKKESAGCLEASVTFNLFRLLTRDLKYVADGNLCLRTSTHPEST
modifications: SIGNAL (1)...(19)

Assays:
[1] = tested on: HSV-2; assay: HSV-2 cytopathic effect inhibition in Vero cells; format: cell-based, Herpes Simplex Virus-2; conditions: HSV-2, Vero cells
Protocol: The Vero cells are propagated in Dulbecco's modified essential medium (DMEM) containing phenol red with 10% horse serum, 1% glutamine and 1% penicillin-streptomycin, while the CPE inhibition assays are performed in DMEM without phenol red with 2% FBS, 1% glutamine and 1% Pen-Strep. On the day preceding the assays, cells were trypsinized (1% trypsin-EDTA), washed, counted and plated out at 10^4 cells/well in a 96-well flat-bottom BioCoat® plates (Fisher Scientific, Pittsburgh, Pa.) in a volume of 100 μl/well. The next morning, the medium was removed and a pre-titered aliquot of virus was added to the cells. The amount of virus used is the maximum dilution that would yield complete cell killing (>80% ) at the time of maximal CPE development. Cell viability is determined using a CellTiter 96® reagent (Promega) according to the manufacturer's protocol, using a Vmax plate reader (Molecular Devices, Sunnyvale, Calif.). Compounds are tested at six concentrations each, diluted in assay medium in a half-log series. Acyclovir was used as a positive control. Compounds are added at the time of viral infection. The average background and drug color-corrected data for percent CPE reduction and percent cell viability at each concentration are determined relative to controls and the IC50 calculated relative to the TC50.

[2] = tested on: ISRE signaling in HepG2 cells; assay: ISRE-luciferase signal transduction reporter assay in HepG2 cells; format: cell-based, human; conditions: 100 ng/ml ligand, 4-hour; RLU over medium alone
[3] = tested on: Mouse B cells; assay: Mouse B cell 3H-thymidine incorporation; format: cell-based
Protocol: Mouse B cells were isolated from 2 Balb/C spleens (7 months old) by depleting CD43+ cells using MACS magnetic beads. Purified B cells were cultured in vitro with LPS, anti-IgM or anti-CD40 monoclonal antibodies. Mouse IL-28 or mouse IFNα was added to the cultures and ^3H-thymidine was added at 48 hrs. and ^3H-thymidine incorporation was measured after 72 hrs. culture.

[4] = tested on: ISG induction (OAS, Pkr, Mx1) in AML-12 cells; assay: ISG induction in the mouse liver cell line AML-12 (real-time PCR); format: cell-based; conditions: AML-12, 20 ng/ml, 48 hour time point
Protocol: AML-12 cells were plated in 6-well plates in complete DMEM media at a concentration of 2×10^6 cells/well. […] As a control, cells were either stimulated with mouse IFNα (positive control) or unstimulated (negative). […] RNA was isolated from cell pellets using RNAEasy-kit® (Qiagen, Valencia, Calif.). RNA was treated with DNase (Millipore, Billerica, Mass.) to clean RNA of any contaminating DNA. cDNA was generated using Perkin-Elmer RT mix. ISG gene induction was evaluated by real-time PCR using primers and probes specific for mouse OAS, Pkr and Mx1. To obtain quantitative data, HPRT real-time PCR was duplexed with ISG PCR. A standard curve was obtained using known amounts of RNA from IFN-stimulated mouse PBLs. All data are shown as expression relative to internal HPRT expression.
All data shown were expressed as fold relative to HPRT gene expression

[5] = tested on: adenoviral vector, AdGFP; assay: Adenoviral vector (AdGFP) liver pathology in mice; conditions: for liver and inflammation scores (histology): vs the PBS-treated group
[6] = tested on: BVDV; assay: BVDV cytopathic effect inhibition in MDBK bovine kidney cells; format: cell-based, bovine viral diarrhea virus
Protocol: The MDBK cells were propagated in Dulbecco's modified essential medium (DMEM) containing phenol red with 10% horse serum, 1% glutamine and 1% penicillin-streptomycin. CPE inhibition assays were performed in DMEM without phenol red with 2% FBS, 1% glutamine and 1% Pen-Strep. On the day preceding the assays, cells were trypsinized (1% trypsin-EDTA), washed, counted and plated out at 10^4 cells/well in a 96-well flat-bottom BioCoat® plates (Fisher Scientific, Pittsburgh, Pa.) in a volume of 100 μl/well. The next day, the medium was removed and a pre-titered aliquot of virus was added to the cells. The amount of virus was the maximum dilution that would yield complete cell killing (>80% ) at the time of maximal CPE development (day 7 for BVDV). Cell viability was determined using a CellTiter96® reagent (Promega) according to the manufacturer's protocol, using a Vmax plate reader (Molecular Devices, Sunnyvale, Calif.). Test samples were tested at six concentrations each, diluted in assay medium in a half-log series. IFNα and RIBAVIRIN® were used as positive controls. Test sample were added at the time of viral infection. The average background and sample color-corrected data for percent CPE reduction and percent cell viability at each concentration were determined relative to controls and the IC50 calculated relative to the TC50.

[7] = tested on: OAS activity; assay: OAS activity in serum and plasma of mice (OAS radioimmunoassay); format: in vivo, mouse; conditions: i.v., 10 μg–250 μg
Protocol: Serum and plasma were isolated from mice at varying time points, and OAS activity was measured using the OAS radioimmunoassay (RIA) kit from Eiken Chemicals (Tokyo, Japan).

[8] = tested on: HHV-8; assay: HHV-8 replication in BCBL-1 cells (TaqMan PCR, CellTiter96); format: cell-based, Human Herpesvirus-8; conditions: six days
[9] = tested on: EMCV; assay: EMCV antiviral assay (MTT dye-uptake) in HepG2 cells; format: cell-based, encephalomyocarditis virus; conditions: cytokine 24 hours before EMCV, OD570
[10] = tested on: human marrow mononuclear cells; assay: Bone marrow expansion assay (Alamar Blue); format: cell-based; conditions: in the presence of IL-2 or IL-15
[11] = tested on: ISGs OAS, Pkr and Mx1 in spleens; assay: ISG expression in spleens of Eu-lck human IL-29 transgenic mice; format: in vivo, mouse; conditions: spleen of IL-29 Tg mice
Protocol: This promoter is active in T cells and B cells. Transgenic mice and their non-transgenic littermates (n=2/gp) were sacrificed at about 10 weeks of age. Spleens of mice were isolated. RNA was isolated from cell pellets using RNAEasy-kit® (Qiagen). RNA was treated with DNase to clean RNA of any contaminating DNA. cDNA was generated using Perkin-Elmer RT® mix. ISG gene induction was evaluated by real-time PCR using primers and probes (5′ FAM, 3′ NFQ) specific for mouse OAS, Pkr and Mx1. To obtain quantitative data, HPRT real-time PCR was duplexed with ISG PCR. Furthermore, a standard curve was obtained using known amounts of IFN stimulated mouse PBLs. All data are shown as expression relative to internal HPRT expression.
All data shown are fold expression relative to HPRT gene expression. The average expression in two mice is shown

[12] = tested on: ISG gene expression (OAS, Pkr, Mx1) in liver, spleen and blood; assay: ISG gene expression in liver, spleen and blood of injected mice (real-time PCR); format: in vivo, mouse; conditions: mice
Protocol: Mice were sacrificed at various time points (1 hr-48 hr). Spleens and livers were isolated from mice, and RNA was isolated. RNA was also isolated from the blood cells. The cells were pelleted and RNA isolated from pellets using RNAEasy®-kit (Qiagen). RNA was treated with DNase (Amicon) to rid RNA of any contaminating DNA. cDNA was generated using Perkin-Elmer RT mix (Perkin-Elmer). ISG gene induction was measured by real-time PCR using primers and probes specific for mouse OAS, Pkr and Mx1. To obtain quantitative data, HPRT real-time PCR was duplexed with ISG PCR. A standard curve was calculated using known amounts of IFN-stimulated mouse PBLs. All data are shown as expression relative to internal HPRT expression.
Results shown are fold expression relative to HPRT gene expression. […] The data shown is the average expression from 5 different animals/group.
Mice were injected with 100 μg of proteins i.v. Data shown is fold expression over HPRT expression from livers of mice. Similar data was obtained from blood and spleens of mice.

[13] = average of two mice (Non-Tg 4.5)

| Molecule | antiviral activity [1] | Fold Inductn. of ISRE signaling [2] [fold] | 3H-thymidine incorporation by mouse B cells ([3]; stimulated with LPS or anti-IgM, IFNα 10 ng/ml, mouse IL-28 any concentration incl. 1000 ng/ml) | 3H thymidine incorporation by mouse B cells ([3]; stimulated with anti-CD40 MAb) | Mx1 expression [4] | OAS expression [4] | PkR expression [4] | liver and inflammation scores (histology) [5] | IC50, inhibition of cell death induced by BVDV [6] [µg/mL] | OAS activity in the serum and plasma of mice [7] | IC50, extracellular HHV-8 DNA [8] [µg/mL] | EC50 [9] [ng/mL] | expansion of bone marrow cells [10] | Mx1 expression ([11]; average of two mice (Non-Tg 3.5)) | OAS expression [11, 13] | PkR expression [11, 13] | time of peak expression of ISGs after injection [12] [h] | liver histology: sinusoidal cells, mitotic figures, changes in the hepatocytes ([5]; vs the PBS treatment group) |
| --- | --- | --- | --- | --- | --- | --- | --- | --- | --- | --- | --- | --- | --- | --- | --- | --- | --- | --- |
| IFNα | no antiviral activity | – | – | – | – | – | – | – | – | – | – | – | – | – | – | – | – | – |
| B1 | – | 4.7 | did not inhibit | increased | 0.08 fold relative to HPRT gene expression | 0.04 fold relative to HPRT gene expression | 0.02 fold relative to HPRT gene expression | lower liver and inflammation scores | – | – | – | – | – | – | – | – | – | – |
| B2 | – | – | – | – | 0.06 fold relative to HPRT gene expression | 0.04 fold relative to HPRT gene expression | 0.02 fold relative to HPRT gene expression | – | 0.02 | induced OAS activity | 1 | – | – | – | – | – | – | – |
| B3 | – | – | – | – | 0.07 fold relative to HPRT gene expression | 0.04 fold relative to HPRT gene expression | 0.02 fold relative to HPRT gene expression | lower liver and inflammation scores | 0.19 | – | 6.5 | 0.60 | small inhibition | 21 fold expression relative to HPRT gene expression | 12 fold expression relative to HPRT gene expression | 8 fold expression relative to HPRT gene expression | 1 to 6 | less proliferation of sinusoidal cells, fewer mitotic figures and fewer changes in the hepatocytes |
